Measurements published in patent US20250051735A1 (VANDERBILT UNIVERSITY, published 2025).

Target: the molecule itself
Experiment: sedimentation velocity analytical ultracentrifugation (self-association)
Description: Sedimentation velocity data were collected at 50,000 rpm and 20° C. on a Beckman Coulter ProteomeLab XL-I analytical ultracentrifuge following standard protocols (Zhao, H., et al. Curr Protoc Protein Sci, 2013 Chapter 20, Unit20 12). 2-channel, 12 mm centerpiece cells were used, and sedimentation was monitored with the absorbance (280 nm) and Rayleigh interference (655 nm) detection systems. A continuous c(s) distribution of Lamm equation solutions, as implemented in SEDFIT (Schuck, P. Biophys J 2000 78:1606-1619), modeled the sedimentation data. […] (Cole, J. L., et al. Methods Cell Biol 2008 84:143-179) provided the solution densities ρ, solution viscosities η, and protein partial specific volumes required for the analysis.
The N-terminus is required for transposase dimerization prior to transposon end binding. Although an attempt was made to explore the role of the piggyBac transposase N-terminus using purified proteins, no soluble N-terminally truncated transposases was recovered under conditions successfully used for the WT transposase in EXPI293F cells (Chen, Q., et al. Nat Commun, 2020 11:3446). To circumvent this, a TEV protease cleavage site was introduced between resides 74 and 75 which allowed expression and purification of a full-length protein and then proteolytical removal of the first 74 amino acids.

B1: PB74-539 transposase generated by proteolytic cleavage (TEV-cleaved TEVΔ74PB1-539) (enzyme)
chain: GSSLASNRILTLPQRTIRGKNKHCWSTSKSTRRSRVSALNIVRSQRGPTRMCRNIYDPLLCFKLFFTDEIISEIVKWTNAEISLKRRESMTGATFRDTNEDEIYAFFGILVMTAVRKDNHMSTDDLFDRSLSMVYVSVMSRDRFDFLIRCLRMDDKSIRPTLRENDVFTPVRKIWDLFIHQCIQNYTPGAHLTIDEQLLGFRGRCPFRMYIPNKPSKYGIKILMMCDSGTKYMINGMPYLGRGTQTNGVPLGEYYVKELSKPVHGSCRNITCDNWFTSIPLAKNLLQEPYKLTIVGTVRSNKREIPEVLKNSRSRPVGTSMFCFDGPLTLVSYKPKPAKMVYLLSSCDEDASINESTGKPQMVMYYNQTKGGVDTLDQMCSVMTCSRKTNRWPMALLYGMINIACINSFIIYSHNVSSKGEKVQSRKKFMRNLYMSLTSSFMRKRLEAPTLKRYLRDNISNILPNE
Question: Does B1 bind?
Answer: Result: no binding
